Data set [1] deals with T1, RECQL4 427-1116 WT (Homo sapiens, UniProt O94761 427-1116).
T1 sequence: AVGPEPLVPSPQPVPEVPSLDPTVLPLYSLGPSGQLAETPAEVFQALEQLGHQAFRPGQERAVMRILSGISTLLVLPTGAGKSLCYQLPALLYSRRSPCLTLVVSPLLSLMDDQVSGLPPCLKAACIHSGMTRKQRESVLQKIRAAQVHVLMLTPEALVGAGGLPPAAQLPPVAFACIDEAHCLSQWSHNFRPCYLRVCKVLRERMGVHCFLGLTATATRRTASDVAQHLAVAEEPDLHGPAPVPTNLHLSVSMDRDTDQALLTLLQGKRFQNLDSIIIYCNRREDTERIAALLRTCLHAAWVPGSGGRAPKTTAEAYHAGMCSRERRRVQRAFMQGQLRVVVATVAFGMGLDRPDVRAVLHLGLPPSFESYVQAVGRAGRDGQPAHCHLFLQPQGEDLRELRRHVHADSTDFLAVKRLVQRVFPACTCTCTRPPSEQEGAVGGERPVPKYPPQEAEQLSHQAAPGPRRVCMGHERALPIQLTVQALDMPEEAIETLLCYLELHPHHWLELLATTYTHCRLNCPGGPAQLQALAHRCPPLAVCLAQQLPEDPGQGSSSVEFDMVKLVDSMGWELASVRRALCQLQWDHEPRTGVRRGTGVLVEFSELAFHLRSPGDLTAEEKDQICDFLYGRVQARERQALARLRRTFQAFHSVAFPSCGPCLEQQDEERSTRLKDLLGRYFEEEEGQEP
As to the kind of experiment: MST; 5 mM Mg2+; no ATP mentioned; Kd only in figure; Buffer D: 10 mM HEPES pH 7.5, 50 mM NaCl, 5 mM MgCl2, 2 mM DTT (EMSA, 100 nM Cy3-DNA, 6% native PAGE); MST with 10 nM Cy5-DNA, buffer not restated; temperature. Particulars: protein: recombinant; tags: GST tag removed by TEV; label: 5' Cy5 on strand 1; 3' overhang 15 nt on strand 1, 15 bp duplex.

Data set [2] deals with T2, RECQL4 427-1116 P532S (Homo sapiens, UniProt O94761 427-1116, P532S).
T2 sequence: T1 sequence with P106S
Described as above. Conditions: protein: recombinant; tags: GST tag removed by TEV; label: 5' Cy5 on strand 1; 3' overhang 15 nt on strand 1, 15 bp duplex.

Numbering of substitutions follows the chain as printed.

B1: OH-Cy5/CQ dsDNA with 3' ss overhang (MST) (dsDNA)
DNA 1: CCATTCCACCCTCTATTTTTTTTTTTTTTT
DNA 2: TAGAGGGTGGAATGG
B1: the binding result in data set [1] and in data set [2] was “binds” throughout.

The values above are taken from paper PMC12717039, “Novel mutations in the RECQL4 gene affect its helicase functions, interactions with the BLM helicase and chemotherapeutics-induced cell death”.
